Source: the nanobody polyreactivity screen of Harvey et al. (2022)

Experiment: yeast display, Sf9 membrane polyspecificity reagent, FACS + sequencing; frameworks hold sequencing errors
Method in brief: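 Galactose induction of a Saccharomyces cerevisiae BJ5465 synthetic nanobody display library ran 36–48 hours. The cells were then stained for 1 hour at 4 °C with 10% biotinylated, detergent-solubilized Sf9 membrane reagent, pulled down on streptavidin microbeads and FACS-sorted into low and high (top ~1%) gates on expression and reagent-binding fluorescence. Labels for polyreactivity follow the gate of origin.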

Row | Sequence | polyreactivity (PSR sort gate)
1 | QVQLVESGGGLVQAGGSLRLSCAASGGILHSYAMGWYRQAPGKERELVAAISGSGGSTYYADSVKGRFTISRDNAKNTVYLQMNSLKPEDTAVYYCNAVHHYPEHIGGGYWGQGTQVTVSS | low polyreactivity
2 | QVQLVESGGGLVQAGGSLRLSCAASGGILSDYAMGWYRQAPGKERELVAAITISGGRTNYADSVKGRFTFSRDNAKNTVYLQMNSLTPEDTAVYYCYKLPWEYDYWGQGTQVTVSS | low polyreactivity
3 | QVQLVESGGGLVQAGGSLRLSCAASGGIVRLYGMGWDRQAPGKEMEFVAAISSGGGRTYYADSVKGRFTLSRDNAKNTVYLQMNSLKPEDTAVYYCNAELNWYYYIHLDYWGQGTQVTVSS | low polyreactivity
4 | QVQLVESGGGLVQAGGSLRLSCAASGGNFESNAMGWYRQAHGKERELVAAISWSGGTTYYADSVKGRFTISRDNAKNTDFLQMNSLKPEDTAVYYCAKVPFSYRSFGYWGQGTQVTVSS | low polyreactivity
5 | QVQLVESGGGLVQAGGSLRLSCAASGGNFKRYAMGWYRQAPGKERELVAAISGRGGSTYYADSVKGRFTISRDYAKNTVYLQMNSLKPEDTAVYYCDAYWRYRTDMDYWGQGTQVTVSS | high polyreactivity
6 | QVQLVESGGGLVQAGGSLRLSCAASGGNFRLYAMGWYSPAPGKERELVAAINGGGSTNYADSVKGRFTISRDNAKNTVYLQMNSLKPEDTAVYYCNAVQYYRFQVYEYDYWGQGTQVTVSS | high polyreactivity
7 | QVQLVESGGGLVQAGGSLRLSCAASGGNFRYYAMGWYRQAPGKERELVAAITRGGRTSYADSVKGRFTISRDNAKNTVYLQMNSLKPEDSAVYYCNAKRPYQEHNSYGYWGQGSQVTVSS | high polyreactivity
8 | QVQLVESGGGLVQAGGSLRLSCAASGGNFSLNAMGWYRQAPGKERELVATISWSGTSTHYADSVKGRFTISRDNAKNTVYLQMNSLKPEDTAVYYCNTRLYGRDYSWYDYWGQGTQVTVSS | high polyreactivity
9 | QVQLVESGGGLVQAGGSLRLSCAASGGNFYYYVMGWYRQAPGKERELVAAITWSGGSTSYADSVKGRFTISRDNAKNTVYLQMNSLKPEDTAVYYCNADSTTQDYDYWGQGTQVSVSS | low polyreactivity
10 | QVQLVESGGGLVQAGGSLRLSCAASGGTCSKYAMGWYRQARGKEREFVAAITVSGGGTYYADSVKGRFTISRDNAKNTVYLQMNSLKTEDTAVYYCAADLAWTASDYWGQGTQVTLSS | low polyreactivity
11 | QVQLVESGGGLVQAGGSLRLSCAASGGTFAEYVMGRYRQAPGKERELVAAIDWSGGSTYYADSVKGRFTISRDNAKNTVYFQMNSLKPEDTALYYCAKGPGYGFYKLMSYDSWGQGTQVTVSS | low polyreactivity
12 | QVQLVESGGGLVQAGGSLRLSCAASGGTFAGYAMGWYRLAPGKERELVAAISWSSGRTYYADSVKGRFTISRDNAKNTVYLQMNSLKPEDTAVYYCNVLRYRGYDYWGQGTQVTVSS | high polyreactivity
13 | QVQLVESGGGLVQAGGSLRLSCAASGGTFAGYAMGWYRQAPGKERELVAAIRWSGGRTYYADSVKGRFTISRDNAKNSVYLQMNSLKPEDTAVYYCAANGHGRVYFEMDYWGQGTQVTVSS | high polyreactivity
14 | QVQLVESGGGLVQAGGSLRLSCAASGGTFARNTMGWYRQAPGKERELVAAITRGGSSTYYADSVKGRFTISRDNAKNTVYLQMNSLKPEDTAVYYCNKSLRWRYPYYGTTGRYDYWGQGTQVTVSS | high polyreactivity
15 | QVQLVESGGGLVQAGGSLRLSCAASGGTFAVNVMGWYRQAPGKERELVAAITSNGGSTYYADSVKGRFTISRDNAKNTVYLQMNSLTPEDTAVYYCAAEGSGWYTGHYYYWGQGTQVTVSS | low polyreactivity
16 | QVQLVESGGGLVQAGGSLRLSCAASGGTFAYYTMGWYRQAPGKERELVAAISSGGRTNYADSVKGRFTISRDNAKNTVYLQMNSLKPEDTAVYYCAAESPLVYYSYPAYYKYYEYEYWGQGTQVTVSS | low polyreactivity
